Assay results as given in paper PMC5740162, “Cryo-EM structure of a licensed DNA replication origin” (Nature Communications, 2017).

Experiments:
Mcm4 = target: T1, Mcm4 (budding yeast, UniProt P30665 1-933); experiment: cryo-EM structure; MCM loaded on bead-immobilised biotinylated 2.8 kb ARS1 DNA with ORC, Cdc6, ATP; with or without DDK; high-salt wash (0.3 M KCl); DNA released by MseI in EM buffer (25 mM Hepes 7.6, 5 mM Mg-acetate, 250 mM K-glutamate); lacey carbon grids, Titan Krios/K2; details: both partners purified
T1 construct: Mcm4, subunit of the yeast Mcm2-7 helicase; Subunit as it stands in the loaded, unmodified MCM double hexamer
T1 sequence: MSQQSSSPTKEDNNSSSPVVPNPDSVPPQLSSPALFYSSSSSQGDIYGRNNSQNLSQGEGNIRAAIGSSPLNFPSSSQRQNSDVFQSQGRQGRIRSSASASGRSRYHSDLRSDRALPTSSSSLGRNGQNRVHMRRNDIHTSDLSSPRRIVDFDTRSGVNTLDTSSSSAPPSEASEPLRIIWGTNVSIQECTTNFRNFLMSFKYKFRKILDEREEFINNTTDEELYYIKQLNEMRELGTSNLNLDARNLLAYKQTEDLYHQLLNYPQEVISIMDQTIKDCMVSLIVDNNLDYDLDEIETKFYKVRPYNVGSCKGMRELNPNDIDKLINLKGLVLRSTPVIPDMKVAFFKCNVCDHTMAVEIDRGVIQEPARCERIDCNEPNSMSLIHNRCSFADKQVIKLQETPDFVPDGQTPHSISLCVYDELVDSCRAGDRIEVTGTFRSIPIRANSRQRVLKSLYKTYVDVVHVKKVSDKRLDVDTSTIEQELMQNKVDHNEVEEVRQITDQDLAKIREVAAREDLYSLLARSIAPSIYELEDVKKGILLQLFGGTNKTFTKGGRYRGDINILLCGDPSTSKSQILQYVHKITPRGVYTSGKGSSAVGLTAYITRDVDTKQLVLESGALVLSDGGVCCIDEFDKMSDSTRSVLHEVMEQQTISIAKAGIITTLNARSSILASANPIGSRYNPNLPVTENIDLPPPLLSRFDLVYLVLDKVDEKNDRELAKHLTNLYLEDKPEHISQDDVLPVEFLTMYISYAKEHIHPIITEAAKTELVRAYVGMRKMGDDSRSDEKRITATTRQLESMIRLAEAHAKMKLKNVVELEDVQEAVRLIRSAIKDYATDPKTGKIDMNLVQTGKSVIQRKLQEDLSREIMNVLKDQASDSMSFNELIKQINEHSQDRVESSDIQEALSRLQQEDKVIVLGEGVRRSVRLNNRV

Mcm3 = target: T2, Mcm3 (budding yeast, UniProt P24279 1-971); experiment: as above; details: both partners purified
T2 construct: Mcm3, subunit of the yeast Mcm2-7 helicase; Subunit as it stands in the loaded, unmodified MCM double hexamer; The complex was purified on calmodulin resin
T2 sequence (P24279 whole entry): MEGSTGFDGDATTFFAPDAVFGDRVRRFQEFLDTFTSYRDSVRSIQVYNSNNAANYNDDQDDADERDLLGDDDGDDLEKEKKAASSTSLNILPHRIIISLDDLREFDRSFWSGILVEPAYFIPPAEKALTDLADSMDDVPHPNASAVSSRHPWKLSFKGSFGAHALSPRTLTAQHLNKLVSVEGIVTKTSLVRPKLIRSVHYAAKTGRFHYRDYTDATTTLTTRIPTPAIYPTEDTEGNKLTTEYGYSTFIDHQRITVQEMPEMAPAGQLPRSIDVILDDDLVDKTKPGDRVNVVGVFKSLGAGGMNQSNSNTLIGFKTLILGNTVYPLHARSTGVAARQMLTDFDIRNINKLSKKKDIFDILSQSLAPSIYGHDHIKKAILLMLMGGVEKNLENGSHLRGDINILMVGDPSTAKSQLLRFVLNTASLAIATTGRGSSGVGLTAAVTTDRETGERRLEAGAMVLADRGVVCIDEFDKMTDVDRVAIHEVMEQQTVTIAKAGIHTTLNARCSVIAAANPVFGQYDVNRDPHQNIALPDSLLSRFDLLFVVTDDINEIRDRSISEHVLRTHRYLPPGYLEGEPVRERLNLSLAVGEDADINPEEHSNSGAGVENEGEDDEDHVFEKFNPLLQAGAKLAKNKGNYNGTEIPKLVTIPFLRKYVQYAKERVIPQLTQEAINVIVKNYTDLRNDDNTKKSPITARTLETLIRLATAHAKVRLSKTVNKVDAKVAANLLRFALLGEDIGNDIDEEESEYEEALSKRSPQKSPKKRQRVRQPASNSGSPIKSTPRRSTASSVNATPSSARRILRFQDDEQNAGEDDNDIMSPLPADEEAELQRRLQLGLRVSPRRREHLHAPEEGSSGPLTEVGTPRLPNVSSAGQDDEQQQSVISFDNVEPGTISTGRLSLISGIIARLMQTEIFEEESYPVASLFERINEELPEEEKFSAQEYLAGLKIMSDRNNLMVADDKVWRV

binding result (Mcm4): binds | binding result (Mcm3): binds
B1: Mcm7 (natural protein, budding yeast)
chain: MSAALPSIQLPVDYNNLFNEITDFLVTFKQDTLSSDATRNENEDENLDAENIEQHLLEKGPKYMAMLQKVANRELNSVIIDLDDILQYQNEKFLQGTQADDLVSAIQQNANHFTELFCRAIDNNMPLPTKEIDYKDDVLDVILNQRRLRNERMLSDRTNEIRSENLMDTTMDPPSSMNDALREVVEDETELFPPNLTRRYFLYFKPLSQNCARRYRKKAISSKPLSVRQIKGDFLGQLITVRGIITRVSDVKPAVEVIAYTCDQCGYEVFQEVNSRTFTPLSECTSEECSQNQTKGQLFMSTRASKFSAFQECKIQELSQQVPVGHIPRSLNIHVNGTLVRSLSPGDIVDVTGIFLPAPYTGFKALKAGLLTETYLEAQFVRQHKKKFASFSLTSDVEERVMELITSGDVYNRLAKSIAPEIYGNLDVKKALLLLLVGGVDKRVGDGMKIRGDINVCLMGDPGVAKSQLLKAICKISPRGVYTTGKGSSGVGLTAAVMKDPVTDEMILEGGALVLADNGICCIDEFDKMDESDRTAIHEVMEQQTISISKAGINTTLNARTSILAAANPLYGRYNPRLSPLDNINLPAALLSRFDILFLMLDIPSRDDDEKLAEHVTYVHMHNKQPDLDFTPVEPSKMREYIAYAKTKRPVMSEAVNDYVVQAYIRLRQDSKREMDSKFSFGQATPRTLLGIIRLSQALAKLRLADMVDIDDVEEALRLVRVSKESLYQETNKSKEDESPTTKIFTIIKKMLQETGKNTLSYENIVKTVRLRGFTMLQLSNCIQEYSYLNVWHLINEGNTLKFVDDGTMDTDQEDSLVSTPKLAPQTTASANVSAQDSDIDLQDA
notes: Mcm7, subunit of the yeast Mcm2-7 helicase; Subunit as it stands in the loaded, unmodified MCM double hexamer
